Target: the molecule itself
Test: SEC-MALS; NOMO1-FLAG on a Superose 6 column, RT, 50 mM MES pH 6.0, 150 mM KCl, 5 mM MgCl2, 5 mM CaCl2, 2% glycerol, 0.05% DDM; protein conjugate analysis to correct for detergent

B1: NOMO1-FLAG (nodal modulator 1, full length, C-terminal FLAG tag) (natural protein, human, UniProt Q15155 32-1222, looked up)
chain: SEDIVVGCGGFVKSDVEINYSLIEIKLYTKHGTLKYQTDCAPNNGYFMIPLYDKGDFILKIEPPLGWSFEPTTVELHVDGVSDICTKGGDINFVFTGFSVNGKVLSKGQPLGPAGVQVSLRNTGTEAKIQSTVTQPGGKFAFFKVLPGDYEILATHPTWALKEASTTVRVTNSNANAASPLIVAGYNVSGSVRSDGEPMKGVKFLLFSSLVTKEDVLGCNVSPVPGFQPQDESLVYLCYTVSREDGSFSFYSLPSGGYTVIPFYRGERITFDVAPSRLDFTVEHDSLKIEPVFHVMGFSVTGRVLNGPEGDGVPEAVVTLNNQIKVKTKADGSFRLENITTGTYTIHAQKEHLYFETVTIKIAPNTPQLADIIATGFSVCGQISIIRFPDTVKQMNKYKVVLSSQDKDKSLVTVETDAHGSFCFKAKPGTYKVQVMVPEAETRAGLTLKPQTFPLTVTNRPMMDVAFVQFLASVSGKVSCLDTCGDLLVTLQSLSRQGEKRSLQLSGKVNAMTFTFDNVLPGKYKISIMHEDWCWKNKSLEVEVLEDDMSAVEFRQTGYMLRCSLSHAITLEFYQDGNGRENVGIYNLSKGVNRFCLSKPGVYKVTPRSCHRFEQAFYTYDTSSPSILTLTAIRHHVLGTITTDKMMDVTVTIKSSIDSEPALVLGPLKSVQELRREQQLAEIEARRQEREKNGNEEGEERMTKPPVQEMVDELQGPFSYDFSYWARSGEKITVTPSSKELLFYPPSMEAVVSGESCPGKLIEIHGKAGLFLEGQIHPELEGVEIVISEKGASSPLITVFTDDKGAYSVGPLHSDLEYTVTSQKEGYVLTAVEGTIGDFKAYALAGVSFEIKAEDDQPLPGVLLSLSGGLFRSNLLTQDNGILTFSNLSPGQYYFKPMMKEFRFEPSSQMIEVQEGQNLKITITGYRTAYSCYGTVSSLNGEPEQGVAMEAVGQNDCSIYGEDTVTDEEGKFRLRGLLPGCVYHVQLKAEGNDHIERALPHHRVIEVGNNDIDDVNIIVFRQINQFDLSGNVITSSEYLPTLWVKLYKSENLDNPIQTVSLGQSLFFHFPPLLRDGENYVVLLDSTLPRSQYDYILPQVSFTAVGYHKHITLIFNPTRKLPEQDIAQGSYIALPLTLLVLLAGYNHDKLIPLLLQLTSRLQGVRALGQAASDNSGPEDAKRQAKKQKTRRT
notes: Nodal modulator 1 (NOMO1), human, type I transmembrane glycoprotein: luminal domain (1124 residues), TM domain, 40-residue cytosolic tail; cloned from a Dharmacon plasmid into pcDNA3.1+; 135 kDa with the tag; Membrane protein kept in dodecyl maltoside (0.05% DDM); also called full-length NOMO1-FLAG; full-length NOMO; source: Expi293F, transfected, purified in DDM (anti-FLAG M2 beads, FLAG peptide …)
stoichiometry N: 2
